Target: FGFR3
Assay: cell-based or functional assay

Row | Substance | concentration at which FDCP-FGFR3 cells proliferate (XTT) [ng/mL] | concentration inducing a growth response of FDCP-FGFR3 cells (XTT) [ng/mL]
1 | FGF4^Δ54N165R (from UniProt P08620 55-206) (ligand) | > 0.1 | 
2 | FGF4^Δ78 (from UniProt P08620 79-206) (ligand) |  | > 25
